# Assays:
# TDP-43 hN12 WT [1] = molecular target: T1, TDP-43 hN12 WT (human, UniProt Q13148 1-259); assay: filter binding; Filter binding: 50 mM phosphate, 50 mM imidazole, 10 mM beta-mercaptoethanol, pH 7.5, room temperature, 30 min, 10 pmol 32P-labelled nucleic acid; details: protein: recombinant; chain copies: 2; label: 5'-32P
# TDP-43 hN12 WT [2] = molecular target: T1, TDP-43 hN12 WT; assay: filter binding; 2 uM protein; Filter binding: 50 mM phosphate, 50 mM imidazole, 10 mM beta-mercaptoethanol, pH 7.5, room temperature, 30 min, 10 pmol 32P-labelled nucleic acid; details: protein: recombinant; chain copies: 2
# TDP-43 RRM1 (hRRM1) WT [3] = molecular target: T2, TDP-43 RRM1 (hRRM1) WT (human, UniProt Q13148 101-191); assay: crystal structure 2.75 A; Filter binding: 50 mM phosphate, 50 mM imidazole, 10 mM beta-mercaptoethanol, pH 7.5, room temperature, 30 min, 10 pmol 32P-labelled nucleic acid; details: protein: recombinant; tags: N-terminal His (pQE30)
# T2 sequence (Q13148 101-191): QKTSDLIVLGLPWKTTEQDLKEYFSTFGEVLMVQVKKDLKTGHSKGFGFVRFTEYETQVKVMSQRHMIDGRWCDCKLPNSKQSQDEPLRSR
# TDP-43 RRM1 (hRRM1) WT [4] = molecular target: T2, TDP-43 RRM1 (hRRM1) WT; assay: filter binding; Filter binding: 50 mM phosphate, 50 mM imidazole, 10 mM beta-mercaptoethanol, pH 7.5, room temperature, 30 min, 10 pmol 32P-labelled nucleic acid; details: protein: recombinant; tags: N-terminal His (pQE30); label: 5'-32P
# T1 sequence (Q13148 1-259): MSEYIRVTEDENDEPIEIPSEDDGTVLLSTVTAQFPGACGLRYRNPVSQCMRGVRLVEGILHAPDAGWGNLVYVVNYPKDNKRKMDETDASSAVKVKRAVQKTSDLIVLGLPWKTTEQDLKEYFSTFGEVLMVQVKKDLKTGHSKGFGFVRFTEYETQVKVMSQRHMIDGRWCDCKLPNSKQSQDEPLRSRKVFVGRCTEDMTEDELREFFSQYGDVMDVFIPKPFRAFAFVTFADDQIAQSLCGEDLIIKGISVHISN
Binder,binding signal (TDP-43 hN12 WT [2]) [% bound],other results
UGUGUGUGUGUGUGUGUGUGUGUGUGUGUG (ssRNA) [(UG)15 RNA],–,Kd (TDP-43 hN12 WT [1]): 5.3 ± 1.2 nM
CGCGUGCCCCUG (ssRNA) [PS2],6.2 ± 0.8,–
"GTTGAGCGTT (ssDNA, 2'-methylseleno-adenosine at A5) [10-nt Se-labelled ssDNA]",–,binding result (TDP-43 RRM1 (hRRM1) WT [3]): binds
UGUGUGUGUGUG (ssRNA) [(UG)6 RNA],67.9 ± 1.9,–
TGTGTGTGTGTGTGTGTGTGTGTGTGTGTG (ssDNA) [(TG)15 DNA],–,Kd (TDP-43 RRM1 (hRRM1) WT [4]): 20.6 ± 1.8 nM
CACACACACACA (ssRNA) [(CA)6 RNA],0.6 ± 1,–
AGAGUGAAAAUG (ssRNA) [PS1],23.1 ± 0.8,–
